From article PMC11201810 (Protein Science : A Publication of the Protein Society, 2024)
Substitutions are numbered along the chain they refer to. Names and notes keep the numbering of the source. Values joined by “and” are separate entries in the source; they are usually repeats but may differ in a detail not shown here. Equal entries are not always repeated. Where two headings read alike, the source gives them in different places.

B1: human βB2-crystallin W151F (natural protein, UniProt P43320 1-205, looked up)
chain: MASDHQTQAGKPQSLNPKIIIFEQENFQGHSHELNGPCPNLKETGVEKAGSVLVQAGPWVGYEQANCKGEQFVFEKGEYPRWDSWTSSRRTDSLSSLRPIKVDSQEHKIILYENPNFTGKKMEIIDDDVPSFHAHGYQEKVSSVRVQSGTFVGYQYPGYRGLQYLLEKGDYKDSSDFGAPHPQVQSVRRIRDMQWHQRGAFHPSN
B2: human βB2-crystallin W85F (natural protein, UniProt P43320 1-205, looked up)
chain: B1 chain with W85F, F151W
B3: human βB2-crystallin W59F (natural protein, UniProt P43320 1-205, looked up)
chain: B1 chain with W59F, F151W
B4: human βB2-crystallin W82F (natural protein, UniProt P43320 1-205, looked up)
chain: B1 chain with W82F, F151W

Legend:
[1] = biological target: human βB2-crystallin W196F (human) (UniProt P43320); assay: SEC
[2] = biological target: human βB2-crystallin W196F (human) (UniProt P43320); assay: AUC
AUC = biological target: the molecule itself; assay: AUC
SEC [3] = biological target: the molecule itself; assay: SEC
SEC [4] = biological target: the molecule itself; assay: SEC; remark: listed apart in the source

Row | Molecule | stoichiometry N [1] | % dimer [2] [%] | % tetramer [2] [%] | % dimer (AUC) [%] | % tetramer (AUC) [%] | stoichiometry N (SEC [3]) | stoichiometry N (SEC [4])
1 | human βB2-crystallin W196F (from UniProt P43320 1-205) (natural protein) | 4 and 2 | 83.4 | 12.7 | – | – | – | –
2 | B1 | – | – | – | 92.2 ± 0.5 | 2.7 ± 0.1 | 2 | –
3 | B2 | – | – | – | 79.7 ± 0.6 | 11.5 ± 0.6 | 2 and 4 | –
4 | B3 | – | – | – | 48.7 ± 0.3 | 36.1 ± 0.4 | 2 | 4
5 | B4 | – | – | – | 75.5 ± 0.3 | 22.3 ± 0.2 | 2 and 4 | –
